Values joined by “and” are separate entries in the source; they are usually repeats but may differ in a detail not shown here. Equal values may be shown once.

Consider 1 molecule from article PMC8626583, “Collagen’s primary structure determines collagen:HSP47 complex stoichiometry” (The Journal of Biological Chemistry, 2021).

The target in assay [1] is T1, foldon-stabilized collagen model peptide with the guest GPRGFP. Description: ELISA; collagen model peptides or collagen I coated on Nunc MaxiSorp (500 ng/well), blocked with 1% BSA in TBS; soluble HSP47 in a 1:4 dilution series from 8 or 10 μM; detected by anti-His-HRP; triplicates, four-parameter logistic fit.
In assay [2] the target is T2, foldon-stabilized collagen model peptide with the guest GPRGPP. Described as above.
The target of assay [3] is T1, foldon-stabilized collagen model …. In words: AUC; sedimentation velocity with fluorescence detection; ATTO488-labelled foldon CMP at 1 μM with HSP47 at ratios (CMP:HSP47) 1:1 to 1:20; 20 mM HEPES, 150 mM NaCl pH 7.5; 42,000 rpm.
Assay [4] has as its target T2, foldon-stabilized collagen model …. Described as above.

B1: HSP47 (heat shock protein 47), Canis lupus, residues 36-418 with C-terminal hexahistidine tag, C7C419 36-418 (natural protein)
chain: LSPKAATLAERSAGLAFSLYQAMAKDQAVENILLSPVVVASSLGLVSLGGKATTASQAKAVLSAEQLRDEEVHAGLGELLRSLSNSTARNVTWKLGSRLYGPSSVSFAEDFVRSSKQHYNCEHSKINFRDKRSALQSINEWAAQTTDGKLPEVTKDVERTDGALLVNAMFFKPHWDEKFHHKMVDNRGFMVTRSYTVGVTMMHRTGLYNYYDDEKEKLQIVEMPLAHKLSSLIILMPHHVEPLERLEKLLTKEQLKIWMGKMQKKAVAISLPKGVVEVTHDLQKHLAGLGLTEAIDKNKADLSRMSGKKDLYLASVFHATAFEWDTEGNPFDQDIYGREELRSPKLFYADHPFIFLVRDTQSGSLLFIGRLVRPKGDKMRDEL
As to B1, the Kd (in general, the free concentration of one partner at which half of the binding sites on the other are occupied at equilibrium, for simple one-to-one binding) in assay [1] is 12 nM; in assay [2], 36 nM and 21.7 nM. Also, the results for the stoichiometry N (HSP47 per CMP trimer) in assay [3] and in assay [4] were 1 and 2, respectively.
